Where two headings read alike, the source gives them in different places.
Columns and labels:
[1] = target: vesicular stomatitis virus nuclear protein (VSV8) peptide on H-2Kb (mouse)
[2] = target: vesicular stomatitis virus nuclear protein (VSV8) peptide on H-2Kb (mouse); assay: full-length, on cells
[3] = target: vesicular stomatitis virus nuclear protein (VSV8) peptide on H-2Kb (mouse); remark: listed apart in the source
[4] = target: VSV8/K^b (as in the statement of the monomeric affinity; construct not described) (vesicular stomatitis virus; mouse) (UniProt P01901); assay: method not stated; BIAcore implied by the sentence
[5] = target: hen egg conalbumin (CA) peptide on I-Ak (mouse); assay: single-chain
N15 TCR = type: binding, mouse; conditions: read-out: monomeric affinity of the N15 TCR for peptide/K^b
[6] = system: N15 TCRs on immature thymocytes; type: cell-based, mouse
[7] = system: DP thymocytes of N15 tg Rag-2−/− H-2b mice; conditions: mouse, in vivo
[8] = target: Tax (peptide residues not given) peptide on HLA-A2 (human)
[9] = target: dEV8 (peptide name as printed; residues not given) peptide on H-2Kb (mouse)
[10] = target: dEV8 (peptide name as printed; residues not given) peptide on H-2Kb (mouse); remark: listed apart in the source
[11] = target: CA/I-A^k: hen egg conalbumin peptide (residues 134-146) fused by a flexible linker to the N-terminus of the I-A^k β chain, with the I-A^k α chain; leucine zippers cleaved off by thrombin (hen; mouse) (UniProt P02789); assay: method not stated; cited as refs. 5, 26 ('Our unpublished results')
[12] = target: VSV8 octapeptide (RGYVYQGL) bound to K^b on presenting cells (vesicular stomatitis virus; mouse) (UniProt P01887); assay: cell-based or functional assay
[13] = target: Tax (peptide residues not given) peptide on HLA-A2 (human); remark: listed apart in the source

UniProt P01901, sequence (P01901 22-305): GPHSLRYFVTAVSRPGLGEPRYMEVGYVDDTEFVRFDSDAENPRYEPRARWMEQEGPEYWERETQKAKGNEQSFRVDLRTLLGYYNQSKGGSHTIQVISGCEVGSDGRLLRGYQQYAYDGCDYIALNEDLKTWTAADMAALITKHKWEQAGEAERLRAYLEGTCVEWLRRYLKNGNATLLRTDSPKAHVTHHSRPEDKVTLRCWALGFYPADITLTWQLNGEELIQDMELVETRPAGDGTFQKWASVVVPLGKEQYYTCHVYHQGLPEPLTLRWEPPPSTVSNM

N15 TCR
orientation angle of the TCR on the pMHC [1]: 54 ° | % CD8 SP thymocytes after 7 days of FTOC [2]: 1% | % DP thymocytes 24 h after injection [2]: 14% | Kd [3]: > 200 µM

N15 TCR (as in the statement of its monomeric affinity; construct not described)
Kd [4]: > 200 µM

D10 TCR
orientation angle of the TCR on the pMHC [5]: 80 °

RGYVYQGL [VSV8]
Kd (N15 TCR): > 200 µM | fraction of DP thymocytes dulled [6]: ~5% | thymocytes falling in the expected CD4/CD8 expression range of DP thymocytes [6]: 10-26% | surviving thymocytes that were DP [7]: < 10% | % of DP thymocytes ([7]; iv): 14%

A6 TCR
orientation angle of the TCR on the pMHC [8]: 56 °

2C TCR
orientation angle of the TCR on the pMHC [9]: 45 ° | Kd [10]: 100 µM

scD10 TCR (single chain V module of the D10 TCR: Vβ8.2-linker-Vα2, 237 residues, Cys235Ser)
Kd [11]: 1000 to 2000 nM

N15 TCR (on thymocytes and splenic T cells of N15 TCR transgenic mice)
DP thymocyte dulling assay: fraction of DP thymocytes dulled [12]: 5%

B7 TCR
orientation angle of the TCR on the pMHC [13]: 70 °
